Legend:
[1] = target: T1, Integrin alpha4beta1 on Jurkat cells (clone E6-1) (Homo sapiens, UniProt P13612;P05556 P13612:34-1032,P05556:21-798); experiment: competition; 50% displacement of 20 nM Cy5-Sgc4f on Jurkat cells; details: tags: endogenous, ATCC cell line; label: biotin, FAM or Cy5; motif on top of a stem formed by flanking constant regions (predicted)
Method: (§1) Aptamer binding studies. While suspension H9, Jurkat, Raji, and K562 cells were harvested normally, adherent B16F10 cells were non-enzymatically dissociated with Versene (Gibco) prior to binding studies to prevent possible enzymatic cleavage of the α4β1 integrin that would affect aptamer binding. Once harvested, cells (2×10⁵) were pre-stained with Zombie Violet in DPBS for 15 min at room temperature, washed once with wash buffer supplemented with 1% BSA, and incubated with 100 μL folded FAM-labeled ssDNA pools or FAM/Cy5-labeled individual aptamers for 30 min at 4° C. in binding buffer at the indicated concentrations. For antibody co-staining, antibodies were added to the incubation with aptamers. For competitive binding studies, unique aptamers with different fluorescent labels were co-incubated on cells at different concentrations. Cells were then washed twice with 200 μL wash buffer 1% BSA to remove excess staining reagent. If biotinylated aptamers were used for primary staining, cells received a secondary stain with 100 μL fluorescently labeled streptavidin in wash buffer 1% BSA for 20 min at 4° C. and then washed twice as before. Lastly, stained cells were lightly fixed in 200 μL wash buffer 1% BSA with 0.1-0.5% perfluoroalkoxy alkane (PFA) before immediate analysis via flow cytometry as described above. […]

[2] = target: T2, Integrin alpha4beta1 (VLA-4, CD49d/CD29), recombinant heterodimer (Homo sapiens, UniProt P13612;P05556 P13612:34-977,P05556:21-728); experiment: BLI; 25 C, immobilised biotin-aptamer, DPBS Ca/Mg + 5 mM MgCl2 + BSA/tRNA/ssDNA; details: tags: His-tag; ACROBiosystems IT1-H52W1; label: biotin, FAM or Cy5; motif on top of a stem formed by flanking constant regions (predicted)
T2 sequence (P13612 34-977, chain 1 of 2): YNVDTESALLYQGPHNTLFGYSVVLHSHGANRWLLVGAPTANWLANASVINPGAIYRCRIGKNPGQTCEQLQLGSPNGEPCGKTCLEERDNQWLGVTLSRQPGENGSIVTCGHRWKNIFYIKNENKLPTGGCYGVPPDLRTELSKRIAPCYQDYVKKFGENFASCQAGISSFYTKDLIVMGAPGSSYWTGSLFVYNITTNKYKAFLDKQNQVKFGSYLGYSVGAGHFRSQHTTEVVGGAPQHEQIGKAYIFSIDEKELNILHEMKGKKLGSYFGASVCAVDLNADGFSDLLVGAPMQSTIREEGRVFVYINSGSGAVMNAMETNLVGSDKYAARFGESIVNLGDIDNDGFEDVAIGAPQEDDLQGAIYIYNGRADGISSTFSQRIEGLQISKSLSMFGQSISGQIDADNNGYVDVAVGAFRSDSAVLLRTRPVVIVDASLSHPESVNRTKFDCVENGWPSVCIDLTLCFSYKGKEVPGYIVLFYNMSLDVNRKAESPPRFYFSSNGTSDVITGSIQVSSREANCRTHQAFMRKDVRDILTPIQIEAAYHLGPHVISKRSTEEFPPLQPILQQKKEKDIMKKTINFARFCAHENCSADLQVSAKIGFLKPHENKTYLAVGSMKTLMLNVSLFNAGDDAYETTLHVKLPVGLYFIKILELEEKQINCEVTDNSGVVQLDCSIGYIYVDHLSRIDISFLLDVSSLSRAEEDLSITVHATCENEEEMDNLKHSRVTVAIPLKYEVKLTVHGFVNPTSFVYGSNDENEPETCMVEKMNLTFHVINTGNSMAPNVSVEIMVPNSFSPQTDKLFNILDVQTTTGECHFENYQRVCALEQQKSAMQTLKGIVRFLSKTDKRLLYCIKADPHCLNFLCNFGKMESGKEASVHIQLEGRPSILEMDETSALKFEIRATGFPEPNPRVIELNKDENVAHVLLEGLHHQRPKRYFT
T2 sequence (P05556 21-728, chain 2 of 2): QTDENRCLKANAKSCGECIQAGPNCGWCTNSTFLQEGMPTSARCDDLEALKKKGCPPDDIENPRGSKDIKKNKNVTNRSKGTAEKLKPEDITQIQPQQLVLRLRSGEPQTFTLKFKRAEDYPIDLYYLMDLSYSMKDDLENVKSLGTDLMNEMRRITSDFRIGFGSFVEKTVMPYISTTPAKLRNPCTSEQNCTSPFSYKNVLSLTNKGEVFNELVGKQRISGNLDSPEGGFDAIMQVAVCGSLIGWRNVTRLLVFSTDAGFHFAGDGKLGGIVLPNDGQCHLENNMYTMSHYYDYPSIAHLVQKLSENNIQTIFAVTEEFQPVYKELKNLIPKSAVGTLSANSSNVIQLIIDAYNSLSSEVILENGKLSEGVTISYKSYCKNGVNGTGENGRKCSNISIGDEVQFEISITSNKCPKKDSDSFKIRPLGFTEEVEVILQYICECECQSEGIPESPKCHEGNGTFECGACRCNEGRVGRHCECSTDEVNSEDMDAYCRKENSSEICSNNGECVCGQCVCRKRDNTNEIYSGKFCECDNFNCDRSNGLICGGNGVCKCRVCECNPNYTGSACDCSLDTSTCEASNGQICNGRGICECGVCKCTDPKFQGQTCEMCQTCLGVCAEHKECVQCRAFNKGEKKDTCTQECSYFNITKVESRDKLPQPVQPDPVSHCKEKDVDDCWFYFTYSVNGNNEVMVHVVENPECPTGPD
Method: (§2) Bio-layer interferometry. BLI studies were performed on an Octet RED96 instrument (Sartorius of Göttingen, Germany) using streptavidin biosensors (Sartorius) as previously described (Cheng et al. (2022) J Am Chem Soc, 144, 13851-64). Briefly, wash buffer supplemented with 1% BSA, 0.1 mg/mL yeast tRNA, 0.1 mg/mL salmon sperm DNA, and 0.01% Tween-20 (Sigma) was used as the sample buffer for all steps. All steps were performed at 25° C. with sample agitation at 1000 rpm. Biosensors were allowed to equilibrate in buffer for at least 10 min before loading. For sensor loading, 50 nM biotinylated aptamers were loaded until a 0.5 nm threshold before performing rinse and baseline steps in buffer alone for 100 s each. […] Kinetic constants were calculated for datasets with several analyte concentrations by conducting a global fit of the association and dissociation curves to a 1:1 ligand binding model. The quality of each fit was evaluated using R2 and χ2 values, which are listed in Table 6 for the appropriate datasets along with the calculated kinetic constants.
(§3) Table 6 lists BLI measured affinity kinetics of immobilized HR7A1, HR7A1.Tr1, and HR7A1.Tr2 aptamer binding to recombinant α4β1 protein. […] Values were calculated by performing a global fit of the binding curve data in FIG. 2B to a 1:1 binding model. […] The goodness of fit was evaluated by a reduced chi-square (χ2) and a R2 value approaching 1.

[3] = target: Integrin alpha4beta1 on B16F10 melanoma cells (Mus musculus, UniProt Q00651;P09055 Q00651:41-1039,P09055:21-798); experiment: flow; apparent, 4 C; details: tags: endogenous, ATCC cell line; label: biotin, FAM or Cy5; motif on top of a stem formed by flanking constant regions (predicted)
Method: as §1, with “reagent.” for “reagent. If biotinylated aptamers were used for primary staining, cells received a secondary stain with 100 μL fluorescently labeled streptavidin in wash buffer 1% BSA for 20 min at 4° C. and then washed twice as before. Lastly, stained cells were lightly fixed in 200 μL wash buffer 1% BSA with 0.1-0.5% perfluoroalkoxy alkane (PFA) before immediate analysis via flow cytometry as described above.”
FIGS. 16A, 16B illustrate that HR7A1 binds mouse α4β1. […] (16B) Flow cytometry binding curves of Cy5-labeled CD8.A3t, HR7A1, and Sgc4f to B16F10 cells, as determined by MFI. […] KD values were calculated by averaging the individual regression values of the independent experiments. […]

[4] = target: T2, Integrin alpha4beta1 (VLA-4, …); experiment: BLI; 25 C, immobilised biotin-aptamer; details: tags: His-tag; ACROBiosystems IT1-H52W1; label: biotin, FAM or Cy5
Method: as §2, §3

[5] = target: T2, Integrin alpha4beta1 (VLA-4, …); experiment: BLI; negative control aptamer, 100 nM protein; details: tags: His-tag; ACROBiosystems IT1-H52W1; label: biotin
Method: as §2, with “each. Afterwards, aptamer-loaded sensors were associated with His-tagged human α4β1 (IT1-H52W1, ACROBiosystems of Beijing, China) or His-tagged human α4β7 (IT7-H52W4, ACROBiosystems) at concentrations and times indicated in the figures and captions. Lastly, sensors were transferred to wells containing buffer alone for dissociation.” for “each.”, “constants. […]” for “constants.”

[6] = target: Integrin alpha4beta7, recombinant heterodimer (Homo sapiens, UniProt P13612;P26010 P13612:34-977,P26010:20-723); experiment: BLI; negative control aptamer, 100 nM protein; details: tags: His-tag; ACROBiosystems IT7-H52W4; label: biotin
Sequence of Integrin alpha4beta7, recombinant heterodimer (P13612 34-977, chain 1 of 2): as the sequence (P13612 34-977, chain 1 of 2) above
Sequence of Integrin alpha4beta7, recombinant heterodimer (P26010 20-723, chain 2 of 2): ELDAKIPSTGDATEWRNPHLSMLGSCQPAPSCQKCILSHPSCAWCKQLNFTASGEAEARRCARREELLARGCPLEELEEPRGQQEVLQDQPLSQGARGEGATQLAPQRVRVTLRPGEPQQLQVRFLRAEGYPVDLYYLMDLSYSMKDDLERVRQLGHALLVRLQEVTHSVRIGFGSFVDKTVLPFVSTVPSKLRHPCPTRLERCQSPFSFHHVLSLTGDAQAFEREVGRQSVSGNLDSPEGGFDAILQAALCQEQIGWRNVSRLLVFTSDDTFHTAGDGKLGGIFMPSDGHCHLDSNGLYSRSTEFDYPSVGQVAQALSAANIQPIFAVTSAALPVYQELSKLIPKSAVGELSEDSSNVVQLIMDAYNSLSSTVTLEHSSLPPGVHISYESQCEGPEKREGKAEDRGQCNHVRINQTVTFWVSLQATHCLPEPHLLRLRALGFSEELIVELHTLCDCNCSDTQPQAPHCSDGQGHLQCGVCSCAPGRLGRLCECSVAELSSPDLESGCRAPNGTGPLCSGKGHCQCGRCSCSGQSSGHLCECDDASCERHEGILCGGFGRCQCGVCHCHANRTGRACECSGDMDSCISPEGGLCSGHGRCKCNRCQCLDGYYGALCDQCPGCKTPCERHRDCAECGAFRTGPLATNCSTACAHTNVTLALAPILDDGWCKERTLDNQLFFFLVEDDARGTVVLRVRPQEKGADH
Method: as §2, with “each. Afterwards, aptamer-loaded sensors were associated with His-tagged human α4β1 (IT1-H52W1, ACROBiosystems of Beijing, China) or His-tagged human α4β7 (IT7-H52W4, ACROBiosystems) at concentrations and times indicated in the figures and captions. Lastly, sensors were transferred to wells containing buffer alone for dissociation.” for “each.”, “constants. […]” for “constants.”

[7] = target: T1, Integrin alpha4beta1 on Jurkat cells …; experiment: competition; 50% block of 100 nM VCAM-1 binding to Jurkat cells; details: tags: endogenous, ATCC cell line; label: biotin, FAM or Cy5
Method: CS1 peptide and VCAM-1 competition. For competition studies involving the CS1 peptide, a Tris-based wash buffer comprised of TBS (Fisher) supplemented with 4.5 g/L glucose, 5.5 mM MgCl², 0.9 mM CaCl², and 10 mM MnCl² was used instead of the normal DPBS-based wash buffer described above. Mn²⁺ has previously been described to support α4β1 binding to the fibronectin CS1 peptide (Masumoto and Hemler. (1993) Journal of Biological Chemistry, 268, 228-234), and as MnCl² precipitates in DPBS, a Tris-based wash buffer was thus required. Peptide stocks were prepared fresh in the Tris-based wash buffer at 20 mM prior to the competition studies and the exact concentration was measured using a QuantTag Biotin Quantification Kit (Vector Labs of Newark, CA). Live/dead and aptamer staining were carried out as described above, except cells were pre-blocked with varying concentrations of the SCR-b or CS1-b peptide in Tris-based wash buffer supplemented with 1% BSA (w/v) and 0.1 mg/mL yeast tRNA for 30 min at room temperature prior to spiking in aptamer and incubating for another 30 min at 4° C. As Tris can neutralize PFA, cells were resuspended in regular wash buffer 1% BSA with 0.5% PFA after washing before analyzing on the flow cytometer. […]

[8] = target: T1, Integrin alpha4beta1 on Jurkat cells …; experiment: competition; 50% displacement of 20 nM Cy5-HR7A1 on Jurkat cells; details: tags: endogenous, ATCC cell line; label: Cy5
Method: as §1

[9] = target: T1, Integrin alpha4beta1 on Jurkat cells …; experiment: flow; apparent, 4 C; details: tags: endogenous, ATCC cell line
Method: (§4) Binding assay: Jurkat cells were washed with DPBS and incubated with Zombie Violet (1:500, 10⁷ cells/mL, BioLegend) in DPBS for live/dead staining for 15 min at room temperature. After live/dead staining, cells were washed with aptamer washed buffer supplemented with 1% BSA to quench the remaining dye and aliquoted in a 96-well plate at 1-2e5 cells/well. For aptamer staining, cells were incubated with annealed aptamers at the indicated concentrations in 100 μL binding buffer (aptamer wash buffer supplemented with 1% BSA and 0.1 mg/ml yeast RNA) for 20-30 min at 4° C. For binding analysis at different temperatures, aptamers (diluted in binding buffer) and cells were separately incubated at the indicated temperatures for 20 min for equilibration. The equilibrated aptamer solutions were then added to the cells and allowed to incubate for 20-30 min. After incubation, cells were washed 2 times with 200 μL aptamer wash buffer supplemented with 1% BSA, resuspended in 200 μL aptamer wash buffer supplemented with 1% BSA and 0.2% PFA, and analyzed on an Attune NxT cytometer.

[10] = target: T1, Integrin alpha4beta1 on Jurkat cells …; experiment: flow; apparent, 4 C; better retained binding at 20 and 37 C than parent; details: tags: endogenous, ATCC cell line
Method: as §4

T1 sequence (P13612 34-1032, chain 1 of 2): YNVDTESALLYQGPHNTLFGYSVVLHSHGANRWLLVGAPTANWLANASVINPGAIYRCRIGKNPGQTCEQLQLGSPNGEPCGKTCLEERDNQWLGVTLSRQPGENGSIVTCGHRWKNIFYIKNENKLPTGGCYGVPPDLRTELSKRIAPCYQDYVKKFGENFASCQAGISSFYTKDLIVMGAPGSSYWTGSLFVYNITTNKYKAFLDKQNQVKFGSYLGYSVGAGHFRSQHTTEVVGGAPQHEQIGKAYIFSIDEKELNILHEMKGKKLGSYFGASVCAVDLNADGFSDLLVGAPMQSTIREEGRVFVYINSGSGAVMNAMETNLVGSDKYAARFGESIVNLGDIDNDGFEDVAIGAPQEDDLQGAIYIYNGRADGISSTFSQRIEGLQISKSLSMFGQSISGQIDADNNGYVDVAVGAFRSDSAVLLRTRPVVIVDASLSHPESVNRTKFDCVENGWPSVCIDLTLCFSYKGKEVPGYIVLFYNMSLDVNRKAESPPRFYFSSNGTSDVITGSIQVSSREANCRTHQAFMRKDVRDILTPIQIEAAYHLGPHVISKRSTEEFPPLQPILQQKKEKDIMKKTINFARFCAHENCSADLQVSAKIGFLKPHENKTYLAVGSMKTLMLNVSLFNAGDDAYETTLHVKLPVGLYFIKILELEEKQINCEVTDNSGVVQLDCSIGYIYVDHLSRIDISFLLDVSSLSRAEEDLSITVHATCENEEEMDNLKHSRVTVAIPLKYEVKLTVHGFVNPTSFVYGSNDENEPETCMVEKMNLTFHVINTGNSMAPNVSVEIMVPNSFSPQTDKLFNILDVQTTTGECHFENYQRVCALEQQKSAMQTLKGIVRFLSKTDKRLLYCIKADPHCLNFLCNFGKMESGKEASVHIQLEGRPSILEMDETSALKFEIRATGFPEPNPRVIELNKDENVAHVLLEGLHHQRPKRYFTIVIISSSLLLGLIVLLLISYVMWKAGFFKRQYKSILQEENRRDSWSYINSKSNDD
T1 sequence (P05556 21-798, chain 2 of 2): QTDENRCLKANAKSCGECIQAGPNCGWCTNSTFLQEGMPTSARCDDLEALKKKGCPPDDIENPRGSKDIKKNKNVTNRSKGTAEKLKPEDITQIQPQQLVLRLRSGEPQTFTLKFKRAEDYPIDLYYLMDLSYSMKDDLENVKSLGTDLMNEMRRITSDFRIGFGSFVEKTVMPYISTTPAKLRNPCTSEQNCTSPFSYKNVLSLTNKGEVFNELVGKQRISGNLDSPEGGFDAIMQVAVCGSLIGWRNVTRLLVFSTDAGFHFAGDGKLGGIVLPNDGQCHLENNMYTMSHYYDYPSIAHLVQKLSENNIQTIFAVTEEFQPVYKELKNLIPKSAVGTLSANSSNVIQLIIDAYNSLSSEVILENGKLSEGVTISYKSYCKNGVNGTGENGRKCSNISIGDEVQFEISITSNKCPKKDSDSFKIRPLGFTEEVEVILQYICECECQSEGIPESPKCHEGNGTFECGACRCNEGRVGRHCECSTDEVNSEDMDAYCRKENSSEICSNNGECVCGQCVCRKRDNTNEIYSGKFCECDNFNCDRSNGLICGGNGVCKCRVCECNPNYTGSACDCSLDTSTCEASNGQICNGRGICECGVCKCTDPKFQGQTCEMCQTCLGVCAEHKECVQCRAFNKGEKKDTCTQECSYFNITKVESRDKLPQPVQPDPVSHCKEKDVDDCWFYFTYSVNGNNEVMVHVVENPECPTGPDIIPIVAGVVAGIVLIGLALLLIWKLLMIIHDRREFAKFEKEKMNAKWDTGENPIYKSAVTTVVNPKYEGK

B1: HR7A1 (ssDNA)
DNA: ATCCAGAGTGACGCAGCAAACCTGACCTCCTTACTAGATGCAACCCGACTACTAACGTCGTAAGAGAGCCTGGACACGGTGGCTTAGT
- IC50 [1]: 0.3 fold excess
- Kd [2]: 6.28 nM
- Kd [3]: 5.2 nM

B2: HR7A1.Tr1 (ssDNA)
DNA: CAGCAAACCTGACCTCCTTACTAGATGCAACCCGACTACTAACGTCGTAAGAGAG
- Kd [4]: 7.74 nM

B3: CD8.A3 (ssDNA)
DNA: ATCCAGAGTGACGCAGCAACAGAGGTGTAGAAGTACACGTGAACAAGCTTGAAATTGTCTCTGACAGAGGTGGACACGGTGGCTTAGT
- binding result [5]: no binding
- binding result [6]: no binding

Binder: CTCCTTACTAGATGCAACCCGACTACTAACGTCGTAAGAGAG (ssDNA) [HR7A1.Tr2]
- Kd [4]: 9.89 nM
- IC50 [7]: 3 nM

B4: Sgc4f (ssDNA)
DNA: ATCACTTATAACGAGTGCGGATGCAAACGCCAGACAGGGGGACAGGAGATAAGTGA
- IC50 [8]: > 3 fold excess

Binder: CGCGCCGTACTAGATGCAACCCGACTACTAACGTCGTACGAGCGCG (ssDNA, PS at three terminal linkages of each end: C*G*C*GCC...GAGC*G*C*G) [HR7A1.Tr2.S2E2.PS3]
- Kd [9]: 3.2 nM

Binder: CGCGCCGTACTAGATGCAACCCGACTACTAACGTCGTACGAGCGCG (ssDNA, PS at * : C*G*CGCCGTA*CTA*GA*TGCA*A*CCCGACTACTAA*CGTCGTACGAGCG*C*G) [HR7A1.Tr2.S2E2.PSA]
- Kd [10]: 9.6 nM

Reference: patent US20250020645, “A4B1 BINDING APTAMERS” (University of Washington, published 2025)
